The text below walks through data of article PMC10167749, “The catalytic domains of Streptococcus mutans glucosyltransferases: a structural analysis” (Acta Crystallographica. Section F, Structural Biology …, 2023).

This test addresses T1, catalytic domain of Streptococcus mutans GtfB (GtfB-CD) (Streptococcus mutans (UA159), UniProt P08987 191-1051).
T1 construct: Glucosyltransferase GtfB (GTF-I), Streptococcus mutans UA159, catalytic domain, residues 191-1051 (UniProt P08987); Cloned between NcoI and XhoI of pET-23d; also called GTF-I; source: E. coli BL21(DE3), pET-23d, purified (HisTrap FF, Mono Q, Superdex 200)
T1 sequence: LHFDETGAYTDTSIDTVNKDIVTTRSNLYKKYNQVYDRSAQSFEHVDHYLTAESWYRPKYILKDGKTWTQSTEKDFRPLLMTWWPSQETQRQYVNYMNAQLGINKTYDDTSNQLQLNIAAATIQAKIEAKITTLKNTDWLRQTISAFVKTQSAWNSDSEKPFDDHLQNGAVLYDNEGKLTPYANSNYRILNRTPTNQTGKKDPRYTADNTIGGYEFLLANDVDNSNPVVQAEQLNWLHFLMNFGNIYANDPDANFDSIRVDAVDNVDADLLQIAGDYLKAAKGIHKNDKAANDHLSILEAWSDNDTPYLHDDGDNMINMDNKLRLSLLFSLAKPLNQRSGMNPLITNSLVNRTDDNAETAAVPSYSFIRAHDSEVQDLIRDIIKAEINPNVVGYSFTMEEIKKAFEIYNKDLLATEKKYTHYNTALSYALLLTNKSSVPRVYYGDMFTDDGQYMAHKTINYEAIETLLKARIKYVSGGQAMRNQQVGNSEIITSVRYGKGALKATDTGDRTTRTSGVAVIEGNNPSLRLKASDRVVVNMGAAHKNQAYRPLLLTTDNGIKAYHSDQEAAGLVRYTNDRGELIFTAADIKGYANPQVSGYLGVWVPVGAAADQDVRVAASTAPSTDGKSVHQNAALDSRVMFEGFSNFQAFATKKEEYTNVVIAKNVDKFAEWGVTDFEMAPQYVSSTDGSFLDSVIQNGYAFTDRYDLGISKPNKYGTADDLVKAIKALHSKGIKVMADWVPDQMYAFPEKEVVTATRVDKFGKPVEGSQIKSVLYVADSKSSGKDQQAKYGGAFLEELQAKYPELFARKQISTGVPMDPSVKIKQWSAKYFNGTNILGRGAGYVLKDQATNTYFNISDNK
In words: SPR; Biacore T200; iSRCR1 immobilised on a CM5 chip by amine coupling; analyte GtfB-CD 2-8 uM in 20 mM HEPES pH 7.4, 150 mM NaCl, 1 mM CaCl2 at 20 ul/min; each concentration in triplicate; kinetic fitting. Conditions: both partners purified. In general terms: SPR reads the build-up and loss of mass on a sensor chip optically.

B1: recombinant scavenger receptor cysteine-rich domain 1 of Gp340 expressed in insect cells (iSRCR1) (domain or fragment)
chain: not shown
notes: Gp340 (salivary agglutinin), scavenger receptor cysteine-rich (SRCR) domain 1; source: recombinant, expressed in insect cells
What is called Kd is the constant that tells how readily two partners part at equilibrium. A lower Kd goes with higher affinity. Consider B1, for which the Kd was 509 nM.
